Paper PMC4838861

Assays:
[1] = target: yeast V-ATPase c subunit ring (c8c’c”) (S. cerevisiae) (UniProt P25515); experiment: SEC + other: negative-stain EM; purified c-ring (1 mg) on Superdex 200 in buffer with 0.1% DDM (also in UnDM or DM); peak fractions 48 and 58 viewed by negative-stain EM
[2] = target: yeast V-ATPase c subunit ring (c8c’c”) (S. cerevisiae) (UniProt P25515); experiment: negative-stain EM with single-particle class averaging; c-ring (1.5 mg/ml) mixed with DOPC, detergent removed with BioBeads for 7 days (incomplete); 4337 images of dumbbell-shaped particles outside the bilayers sorted into 16 classes (EMAN1.9)

stoichiometry N [1]: 2 | stoichiometry N [2]: 2
Substance: yeast V-ATPase c subunit ring (c8c’c”) (from UniProt P25515 1-160; P32842 1-164; P23968 1-213) (complex)
